This note sets out measurements from patent publication US6514747B2 (UT-Battelle, LLC, priority 1993, dated 2003).

The test system of series [1] is A7r5 vascular smooth muscle cells. Nature of the series: [Ca2+]i in A7r5 vascular smooth muscle cells (fura 2). As to conditions: 400 s, n = 8. The format is cell-based. As for the experimental part:
The spontaneously fusing L6 skeletal muscle cells [American Type Culture Collection (ATCC), Bethesda, MD] were grown in 75-cm^2 flasks in Dulbecco's modified Eagle's medium with 10% glucose (DMEM) supplemented with 5% fetal bovine serum (FBS, vol/vol), 5% calf serum supplemented iron enriched (CS, vol/vol, and antibiotics (50 U penicillin/ml and 5 μg of streptomycin/ml). Cultures were maintained in continuous passages (<20) by trypsinization (0.05% trypsin) of semiconfluent nonfused cells. A7r5 vascular smooth muscle cells (ATCC) were grown in the same conditions as for L6 cells. 3T3-L1 cells (ATCC) were grown in 100-mm dishes in DMEM containing 10% FBS and antibiotics. For differentiation of fibroblasts into adipocytes, confluent cells were incubated in DMEM-FBS containing 0.5 mM 3-isobutyl-1-methylxanthine (IBMX; Sigma, St. Louis, Mo.) and 0.25 μM dexamethasone (Dex; Sigma) for 60 h. […]
[Ca^2+]i was measured in L6, A7r5, and HEK-293 cells (Zemel et al., 1995) as previously described and in 3T3-L1 cells as described by Klip and Ramlal (1987). […] [Ca^2+]i levels were then measured fluorometrically in suspensions using dual excitation (340 and 380 nm)-single emission (510 nm) fluorometry as previously described (Zemel et al., 1995). [Ca^2+]i was then calculated by the computer in the fluorometer with the equation of Grynkiewicz et al. (1985). […]

Series [2] deals with 3T3-L1 adipocytes. Nature of the series: lipogenesis in 3T3-L1 adipocytes (FAS and SCD mRNA, FAS activity, triglyceride content). The series is classed as cell-based.
The next series has as its target T1, rat MC3-R (Rattus norvegicus, UniProt P32244).
T1 construct: expressed in transfected cells; host or cells: 293 cells
Nature of the series: α-MSH activation of rat MC3-R in transfected 293 cells (adenylyl cyclase). The format is cell-based. As to conditions: agouti 0.7 nM.

A further series concerns the target T2, human MC4-R (Homo sapiens, UniProt P32245).
T2 construct: expressed in transfected cells; host or cells: 293 cells
Nature of the series: α-MSH activation of human MC4-R in transfected 293 cells (adenylyl cyclase). The format is cell-based.

The target of the next series is T3, murine MSH-R (Mus musculus, UniProt Q01727).
T3 construct: expressed in transfected cells; host or cells: 293 cells, stably transfected
T3 sequence (Q01727 whole entry): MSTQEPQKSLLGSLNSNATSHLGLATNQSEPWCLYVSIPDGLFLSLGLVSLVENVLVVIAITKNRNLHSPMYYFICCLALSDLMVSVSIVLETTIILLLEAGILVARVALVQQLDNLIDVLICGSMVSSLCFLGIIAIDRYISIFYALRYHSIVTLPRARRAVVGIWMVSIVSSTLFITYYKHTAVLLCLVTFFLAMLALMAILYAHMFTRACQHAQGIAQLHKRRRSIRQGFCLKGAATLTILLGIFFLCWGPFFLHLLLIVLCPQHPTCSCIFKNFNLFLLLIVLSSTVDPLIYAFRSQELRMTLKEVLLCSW
Description: α-MSH activation of murine MSH-R in stably transfected 293 cells (adenylyl cyclase). The series is classed as cell-based. Conditions: agouti 0.7 nM.

The test system of a further series is L6 skeletal myocytes. Description: [Ca2+]i in L6 skeletal myocytes (fura 2). The series is classed as cell-based. Conditions: for [Ca2+]i Increase over Baseline: 400 s, n = 8.
For the next series, the system named is untransfected 293 cells. Description: adenylyl cyclase assay in untransfected 293 cells. As to conditions: agouti 0.7 nM. The series is classed as cell-based, human. As for the experimental part:
293 cells (5×10^5) and 293 cells expressing human TSH-R were preloaded with 5 μCi ^3H-adenine for 1.5 h at 37° C. in a 5% CO2 incubator.
Medium was aspirated and 2.5% perchloric acid containing 0.1 mM cAMP was used to stop the incubation. Adenylyl cyclase activity was calculated by determining the percent conversion of ^3H-adenine to ^3H-cAMP as described (Salomon, 1991; Johnson and Salomon, 1991). Correlation of cAMP accumulation measured in this assay with actual adenylyl cyclase activity is made under the assumption that isobutymethylxanthine effectively blocks cAMP degradation. Data represent means and standard deviations from triplicate data points.

The subject of series [3] is 3T3-L1 adipocytes. Description: [Ca2+]i in 3T3-L1 adipocytes (fura 2). The series is classed as cell-based. Conditions: for [Ca2+]i Increase over Baseline: 400 s, n = 8. The procedure:
The spontaneously fusing L6 skeletal muscle cells [American Type Culture Collection (ATCC), Bethesda, MD] were grown in 75-cm^2 flasks in Dulbecco's modified Eagle's medium with 10% glucose (DMEM) supplemented with 5% fetal bovine serum (FBS, vol/vol), 5% calf serum supplemented iron enriched (CS, vol/vol, and antibiotics (50 U penicillin/ml and 5 μg of streptomycin/ml). Cultures were maintained in continuous passages (<20) by trypsinization (0.05% trypsin) of semiconfluent nonfused cells. A7r5 vascular smooth muscle cells (ATCC) were grown in the same conditions as for L6 cells. 3T3-L1 cells (ATCC) were grown in 100-mm dishes in DMEM containing 10% FBS and antibiotics. For differentiation of fibroblasts into adipocytes, confluent cells were incubated in DMEM-FBS containing 0.5 mM 3-isobutyl-1-methylxanthine (IBMX; Sigma, St. Louis, Mo.) and 0.25 μM dexamethasone (Dex; Sigma) for 60 h. IBMX and Dex were then removed, and cells remained in DMEM-FBS with 250 μg/ml geneticin and compared with nontransfected HEK-293 cells. All types of cells were maintained at 37° C. in an atmosphere containing 5% CO2 and 100% humidity. Cell culture reagents, FBS, CS, and trypsin-EDTA were obtained from GIBCO/BRL (Grand Island, N.Y.).
Viruses incorporating this vector were produced by standard methods (Lu et al., 1994). Spodoptera frugiperda cells (Sf-9) were propagated in Grace's supplemented medium containing 10% CS and 0.1% Pluronic F68 and used to produce […] viral stocks. Fifteen-liter scale production runs of murine or human agouti were produced using T. ni cells adapted to suspension (JRH Biosciences, Woodland, Calif.). T ni cells were infected 24 h postseeding at a density of 10^6 cells/ml, and conditioned media from infected cells were harvested 48 h after infection filtered through a Whatman 3 filter and purified as recently described (Willard et al., 1995).
[Ca^2+]i was measured in L6, A7r5, and HEK-293 cells (Zemel et al., 1995) as previously described and in 3T3-L1 cells as described by Klip and Ramlal (1987). Monolayers of nonfused L6 cells and confluent A7r5 cells after 14-16 h of starvation in a serum-free culture medium were rinsed with Hanks' balanced salt solution (HBSS), detached by incubation in 2 ml trypsin (0.05%) for 2-3 min at 37° C., and released by pipetting without trypsinization. Cells were harvested by centrifugation at 50 g and resuspended in 1 ml HBSS at a density of ˜10^6 cells/ml. […] [Ca^2+]i levels were then measured fluorometrically in suspensions using dual excitation (340 and 380 nm)-single emission (510 nm) fluorometry as previously described (Zemel et al., 1995). [Ca^2+]i was then calculated by the computer in the fluorometer with the equation of Grynkiewicz et al. (1985). […]

For the next series, the target named is T4, mouse MC5-R (Mus musculus, UniProt P41149).
T4 construct: expressed in transfected cells; host or cells: 293 cells
T4 sequence (P41149 whole entry): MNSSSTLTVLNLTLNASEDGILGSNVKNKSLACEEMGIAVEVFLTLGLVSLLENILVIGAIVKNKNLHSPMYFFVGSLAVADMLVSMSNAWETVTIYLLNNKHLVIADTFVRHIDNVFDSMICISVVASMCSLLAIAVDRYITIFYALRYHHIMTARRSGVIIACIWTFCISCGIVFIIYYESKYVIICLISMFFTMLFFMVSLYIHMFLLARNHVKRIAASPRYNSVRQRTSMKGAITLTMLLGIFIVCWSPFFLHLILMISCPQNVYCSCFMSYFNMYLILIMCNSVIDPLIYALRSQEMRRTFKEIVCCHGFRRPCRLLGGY
Nature of the series: α-MSH activation of mouse MC5-R in transfected 293 cells (adenylyl cyclase). The series is classed as cell-based.

Where two headings read alike, the source gives them in different places.

T2 sequence (P32245 whole entry): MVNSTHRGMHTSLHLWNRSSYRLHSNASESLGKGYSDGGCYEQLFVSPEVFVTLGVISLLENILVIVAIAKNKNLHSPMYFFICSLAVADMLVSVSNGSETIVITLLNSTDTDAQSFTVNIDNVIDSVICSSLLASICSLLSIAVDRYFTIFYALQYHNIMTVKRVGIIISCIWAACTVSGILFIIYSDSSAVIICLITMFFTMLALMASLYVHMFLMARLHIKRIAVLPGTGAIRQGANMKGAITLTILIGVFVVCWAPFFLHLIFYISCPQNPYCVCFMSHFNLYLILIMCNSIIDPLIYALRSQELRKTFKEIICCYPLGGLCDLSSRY
T1 sequence (P32244 whole entry): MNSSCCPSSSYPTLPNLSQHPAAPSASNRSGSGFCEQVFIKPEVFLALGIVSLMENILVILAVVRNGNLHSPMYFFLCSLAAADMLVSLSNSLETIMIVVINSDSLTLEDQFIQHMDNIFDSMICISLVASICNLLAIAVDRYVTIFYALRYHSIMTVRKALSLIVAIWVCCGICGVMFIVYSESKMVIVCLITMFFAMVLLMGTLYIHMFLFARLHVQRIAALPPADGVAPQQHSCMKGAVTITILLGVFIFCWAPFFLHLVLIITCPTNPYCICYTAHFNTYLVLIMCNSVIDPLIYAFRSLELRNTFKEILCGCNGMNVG

B1: agouti: recombinant mouse agouti protein (131 amino acids, SEQ ID NO:2) produced with the baculovirus expression system in T. ni cells (protein, listed as Mus musculus)
chain: MDVTRLLLATLVSFLCFFTVHSHLALEETLGDDRSLRSNSSMNSLDFSSVSIVALNKKSKKISRKEAEKRKRSSKKKASMKKVARPPPPSPCVATRDSCKPPAPACCDPCASCQCRFFGSACTCRVLNPNC
As for B1, the “[Ca2+]i Increase over Baseline” value came out at 74 ± 6 nM in series [1] (5 nM Agouti); 46 ± 9 nM in series [1] (25 nM Agouti); 49 ± 8 nM with L6 skeletal myocytes (5 nM Agouti); 32 ± 1 nM in the series with L6 skeletal myocytes (25 nM Agouti); 73 ± 6 nM in the series with 3T3-L1 adipocytes [3] (5 nM Agouti); 33 ± 6 nM with 3T3-L1 adipocytes [3] (25 nM Agouti). The “increase in FAS mRNA levels” value in the series with 3T3-L1 adipocytes [2] (48 h treatment) is reported as 1.5 fold. For the same molecule, the “increase in SCD mRNA levels” value with 3T3-L1 adipocytes [2] (48 h treatment) is 4 fold. For the same molecule, the cellular triglyceride content in the series on 3T3-L1 adipocytes [2] (agouti, 48 h) is recorded as 0.104±0.008 mg triglycerides/mg protein. The results for the “antagonism of receptor activation” value in the series with rat MC3-R, in the series with mouse MC5-R (100 nM agouti) and in the series with mouse MC5-R (agouti 0.7 nM) were “did not antagonize”, “unaffected” and “did not antagonize”, respectively. In addition, the “antagonism of α-MSH activation” value in the series with human MC4-R was “potent antagonist”. In addition, the “maximally induced activity of the receptor” value with murine MSH-R is on record as “did not alter”. Besides, the “[Ca2+]i response” value with L6 skeletal myocytes (50 nM agouti, no channel blocker) turned out to be 49 ± 8 nM. Besides, the “Vmax of [Ca2+]i dose-response fit” value in the series on L6 skeletal myocytes (nonlinear least-squares, y=(Vmax·x)/(K+x)) was determined as 123±15.63. The EC50 was 62.1 ± 19.4 nM with L6 skeletal myocytes (nonlinear least-squares, y=(Vmax·x)/(K+x), read-out: K of [Ca2+]i dose-response fit) and 62 ± 19 nM in the series with L6 skeletal myocytes (response plateau at 400 s, read-out: apparent EC50 of [Ca2+]i response). For the same molecule, in the series with untransfected 293 cells, the “effect on basal adenylyl cyclase levels” value is on record as “no effect”. Further, in the series with 3T3-L1 adipocytes [3] (50 nM agouti, 400 s after agouti addition), the “[Ca2+]i increase over baseline (plateau)” value was 73 ± 6 nM. The “[Ca2+]i increase” value in the series with 3T3-L1 adipocytes [3] (50 nM agouti, after 200 s) was 44 ± 4 nM.
